Tested on: Escherichia coli TOP10
Assay: shrunken log2 fold change of peptide-encoding DNA abundance (4.5 h post-induction vs induction); higher = less antimicrobial activity (less host growth inhibition)
Conditions: time post-induction: 4.5 h; library: site-saturation at positions 5, 18, 19, 20
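Further: peptides expressed intracellularly from a pBAD plasmid library in pooled LB shake-flask culture, induced with 0.3% L-arabinose, DNA abundance read by NGS, three biological replicates, DESeq2 with apeglm shrinkage.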

Sequence | shrunken log2 fold change
RRIRCRPPRLPRPRPRPWWYPRP | -0.136
RRIRCRPPRLPRPRPRPYAHPRP | -0.189
RRIRCRPPRLPRPRPRPYCAPRP | -0.642
RRIRCRPPRLPRPRPRPYDRPRP | -0.188
RRIRCRPPRLPRPRPRPYFGPRP | -0.0436
RRIRCRPPRLPRPRPRPYGHPRP | -0.0546
RRIRCRPPRLPRPRPRPYHDPRP | -1.05
RRIRCRPPRLPRPRPRPYHKPRP | -0.743
RRIRCRPPRLPRPRPRPYHLPRP | -0.0832
RRIRCRPPRLPRPRPRPYHNPRP | -1.12
RRIRCRPPRLPRPRPRPYKEPRP | 0.0662
RRIRCRPPRLPRPRPRPYKRPRP | -0.909
RRIRCRPPRLPRPRPRPYLAPRP | -0.44
RRIRCRPPRLPRPRPRPYMQPRP | -0.918
RRIRCRPPRLPRPRPRPYNNPRP | -1.23
RRIRCRPPRLPRPRPRPYRIPRP | -0.263
RRIRCRPPRLPRPRPRPYSEPRP | -0.766
RRIRCRPPRLPRPRPRPYTNPRP | -1.19
RRIRCRPPRLPRPRPRPYVRPRP | -0.0787
RRIRCRPPRLPRPRPRPYWKPRP | -0.737
RRIRCRPPRLPRPRPRPYWRPRP | -0.0756
RRIRCRPPRLPRPRPRPYYDPRP | -0.361
RRIRCRPPRLPRPRPRPYYGPRP | -0.199
RRIRDRPPRLPRPRPRPACFPRP | 0.664
RRIRDRPPRLPRPRPRPACYPRP | -0.142

Sequence | shrunken log2 fold change
RRIRDRPPRLPRPRPRPADTPRP | -0.379
RRIRDRPPRLPRPRPRPADWPRP | 0.305
RRIRDRPPRLPRPRPRPAEFPRP | 0.149
RRIRDRPPRLPRPRPRPAENPRP | 0.224
RRIRDRPPRLPRPRPRPAFFPRP | 0.342
RRIRDRPPRLPRPRPRPAFTPRP | -0.155
RRIRDRPPRLPRPRPRPAHLPRP | 0.0723
RRIRDRPPRLPRPRPRPAHPPRP | -0.203
RRIRDRPPRLPRPRPRPAHVPRP | -0.0599
RRIRDRPPRLPRPRPRPAICPRP | 0.391
RRIRDRPPRLPRPRPRPAIKPRP | 0.235
RRIRDRPPRLPRPRPRPAKEPRP | 0.0263
RRIRDRPPRLPRPRPRPALFPRP | 0.99
RRIRDRPPRLPRPRPRPALGPRP | 0.933
RRIRDRPPRLPRPRPRPAMLPRP | 0.278
RRIRDRPPRLPRPRPRPAMVPRP | 0.282
RRIRDRPPRLPRPRPRPANHPRP | -0.438
RRIRDRPPRLPRPRPRPAPDPRP | 0.533
RRIRDRPPRLPRPRPRPAPTPRP | 0.684
RRIRDRPPRLPRPRPRPAQHPRP | 0.288
RRIRDRPPRLPRPRPRPAQPPRP | 0.278
RRIRDRPPRLPRPRPRPASCPRP | 0.0585
RRIRDRPPRLPRPRPRPASLPRP | 0.416
RRIRDRPPRLPRPRPRPATCPRP | 0.171
RRIRDRPPRLPRPRPRPAVMPRP | -0.00993

Sequence | shrunken log2 fold change
RRIRDRPPRLPRPRPRPAVRPRP | -0.0321
RRIRDRPPRLPRPRPRPAYMPRP | -0.342
RRIRDRPPRLPRPRPRPCCFPRP | 0.395
RRIRDRPPRLPRPRPRPCDYPRP | -0.0874
RRIRDRPPRLPRPRPRPCEDPRP | -0.0105
RRIRDRPPRLPRPRPRPCEFPRP | 0.013
RRIRDRPPRLPRPRPRPCEMPRP | 0.63
RRIRDRPPRLPRPRPRPCFHPRP | -0.336
RRIRDRPPRLPRPRPRPCGGPRP | 0.132
RRIRDRPPRLPRPRPRPCHVPRP | -0.0466
RRIRDRPPRLPRPRPRPCINPRP | 0.224
RRIRDRPPRLPRPRPRPCLMPRP | 0.209
RRIRDRPPRLPRPRPRPCLPPRP | -0.272
RRIRDRPPRLPRPRPRPCMFPRP | -0.00227
RRIRDRPPRLPRPRPRPCNHPRP | -0.218
RRIRDRPPRLPRPRPRPCPSPRP | 0.114
RRIRDRPPRLPRPRPRPCPVPRP | -0.426
RRIRDRPPRLPRPRPRPCQSPRP | -0.121
RRIRDRPPRLPRPRPRPCQTPRP | 0.00442
RRIRDRPPRLPRPRPRPCSYPRP | -0.138
RRIRDRPPRLPRPRPRPCTGPRP | -0.0116
RRIRDRPPRLPRPRPRPCVFPRP | 0.37
RRIRDRPPRLPRPRPRPCVRPRP | -0.111
RRIRDRPPRLPRPRPRPCVYPRP | -0.0478
RRIRDRPPRLPRPRPRPCWAPRP | 0.125

Sequence | shrunken log2 fold change
RRIRDRPPRLPRPRPRPCWFPRP | -0.0292
RRIRDRPPRLPRPRPRPCYIPRP | 0.0176
RRIRDRPPRLPRPRPRPCYWPRP | 0.00776
RRIRDRPPRLPRPRPRPDAPPRP | 0.788
RRIRDRPPRLPRPRPRPDDLPRP | 0.00447
RRIRDRPPRLPRPRPRPDEIPRP | 0.0508
RRIRDRPPRLPRPRPRPDELPRP | 0.414
RRIRDRPPRLPRPRPRPDETPRP | 0.0461
RRIRDRPPRLPRPRPRPDFNPRP | -0.188
RRIRDRPPRLPRPRPRPDGPPRP | 0.0462
RRIRDRPPRLPRPRPRPDGVPRP | -0.0199
RRIRDRPPRLPRPRPRPDIQPRP | -0.228
RRIRDRPPRLPRPRPRPDKDPRP | 0.0428
RRIRDRPPRLPRPRPRPDKTPRP | 0.0138
RRIRDRPPRLPRPRPRPDLSPRP | 0.0253
RRIRDRPPRLPRPRPRPDMTPRP | 0.242
RRIRDRPPRLPRPRPRPDMVPRP | 0.00109
RRIRDRPPRLPRPRPRPDQHPRP | 0.132
RRIRDRPPRLPRPRPRPDQPPRP | -0.00151
RRIRDRPPRLPRPRPRPDQRPRP | -0.00174
RRIRDRPPRLPRPRPRPDSNPRP | 0.205
RRIRDRPPRLPRPRPRPDSYPRP | -0.0336
RRIRDRPPRLPRPRPRPDVAPRP | 0.0356
RRIRDRPPRLPRPRPRPDWKPRP | 0.0755
RRIRDRPPRLPRPRPRPDYFPRP | -0.052

Sequence | shrunken log2 fold change
RRIRDRPPRLPRPRPRPDYLPRP | 0.0544
RRIRDRPPRLPRPRPRPEANPRP | 1.28
RRIRDRPPRLPRPRPRPEDHPRP | 1.08
RRIRDRPPRLPRPRPRPEDLPRP | 0.902
RRIRDRPPRLPRPRPRPEEAPRP | 2.05
RRIRDRPPRLPRPRPRPEEKPRP | 0.766
RRIRDRPPRLPRPRPRPEFVPRP | 0.204
RRIRDRPPRLPRPRPRPEHCPRP | -0.0205
RRIRDRPPRLPRPRPRPEHIPRP | -0.193
RRIRDRPPRLPRPRPRPEHWPRP | 0.598
RRIRDRPPRLPRPRPRPEIEPRP | 0.522
RRIRDRPPRLPRPRPRPEIYPRP | 0.0907
RRIRDRPPRLPRPRPRPEKPPRP | -0.173
RRIRDRPPRLPRPRPRPELMPRP | 1.68
RRIRDRPPRLPRPRPRPELRPRP | 0.621
RRIRDRPPRLPRPRPRPEPIPRP | -0.0153
RRIRDRPPRLPRPRPRPEPLPRP | 0.0701
RRIRDRPPRLPRPRPRPEPNPRP | 0.746
RRIRDRPPRLPRPRPRPEREPRP | -0.0248
RRIRDRPPRLPRPRPRPERIPRP | -0.0322
RRIRDRPPRLPRPRPRPESCPRP | 0.629
RRIRDRPPRLPRPRPRPESHPRP | 0.0331
RRIRDRPPRLPRPRPRPESNPRP | 0.892
RRIRDRPPRLPRPRPRPESTPRP | -0.0182
RRIRDRPPRLPRPRPRPESYPRP | 0.0185

Sequence | shrunken log2 fold change
RRIRDRPPRLPRPRPRPETRPRP | 1.11
RRIRDRPPRLPRPRPRPEVAPRP | 0.563
RRIRDRPPRLPRPRPRPEVFPRP | 0.443
RRIRDRPPRLPRPRPRPEVQPRP | 0.988
RRIRDRPPRLPRPRPRPEYKPRP | 0.27
RRIRDRPPRLPRPRPRPFAHPRP | 0.228
RRIRDRPPRLPRPRPRPFEEPRP | 0.0467
RRIRDRPPRLPRPRPRPFEFPRP | 0.0215
RRIRDRPPRLPRPRPRPFHQPRP | -0.0388
RRIRDRPPRLPRPRPRPFHRPRP | -0.261
RRIRDRPPRLPRPRPRPFHVPRP | -0.0179
RRIRDRPPRLPRPRPRPFIHPRP | -0.572
RRIRDRPPRLPRPRPRPFIKPRP | -0.206
RRIRDRPPRLPRPRPRPFIYPRP | -0.115
RRIRDRPPRLPRPRPRPFKHPRP | -0.264
RRIRDRPPRLPRPRPRPFLAPRP | 0.341
RRIRDRPPRLPRPRPRPFMAPRP | 0.035
RRIRDRPPRLPRPRPRPFMYPRP | -0.212
RRIRDRPPRLPRPRPRPFNVPRP | -0.00548
RRIRDRPPRLPRPRPRPFRPPRP | 0.0778
RRIRDRPPRLPRPRPRPFRRPRP | 0.0456
RRIRDRPPRLPRPRPRPFRSPRP | -0.0401
RRIRDRPPRLPRPRPRPFSIPRP | 0.0044
RRIRDRPPRLPRPRPRPFSSPRP | -0.0177
RRIRDRPPRLPRPRPRPFTGPRP | -0.267
